Key:
Test in all cases: NMR
Cys31 = Cys31 (UniProt position 31, FGTDWCGHCQA); conditions: 298 K; reduced (dithiol) Patrx2, with DTT
Cys34 = Cys34 (UniProt position 34, DWCGHCQAAQP); conditions: 298 K; reduced (dithiol) Patrx2, with DTT
His33 = His33 (UniProt position 33, TDWCGHCQAAQ); conditions: 298 K

Patrx2 (atypical thioredoxin, PA2694) (Pseudomonas aeruginosa)
pKa (Cys31): 5.8 | pKa (Cys34): greater than 11.5 | pKa (His33; oxidised (C31-C34 disulfide) Patrx2, without DTT): less than 5 | pKa (His33; reduced (dithiol) Patrx2, with DTT): 6.3
